From patent publication US20250320268A1 (SHATTUCK LABS, published 2025)
Where “and” joins values, the source holds several entries; their conditions need not be identical. Equal entries are not always repeated.

Tests used:
[1] = biological target: recombinant hCD47-Fc (human) (UniProt Q08722); assay: SIRPα blocking ELISA: plate-bound hCD47, labelled competitor recombinant hSIRPα
[2] = biological target: recombinant human FcγR1A, histidine-tagged (human) (UniProt P12314); assay: SPR (ProteOn XPR36); His-tagged FcγR1A immobilized, binder as analyte
recombinant mouse CD47 = biological target: T1, recombinant mouse CD47 (mouse, UniProt Q61735 19-140, limits assumed); assay: dual ELISA: coat mCD47-Fc, detect mCD40-His, tertiary anti-his-HRP
T1 construct: also called mCD47-Fc
T1 sequence (looked up): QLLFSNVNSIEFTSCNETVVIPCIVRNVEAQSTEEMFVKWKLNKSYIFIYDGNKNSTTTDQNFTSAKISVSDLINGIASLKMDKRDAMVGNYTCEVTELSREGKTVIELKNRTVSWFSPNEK
Experimental: Plates were washed with TBS-T (Tris-buffered saline containing 0.1% Tween 20) and then detection antibody was added for 1 hour at room temperature in the dark. Detection antibodies included anti-hIgG-HRP, anti-mIgG-HRP, anti-hCD40L, anti-mCD40L, and then anti-Goat-HRP (all antibodies were obtained from Jackson ImmunoResearch Laboratories or R&D Systems). Plates were washed again and SureBlue TMB Microwell Peroxidase Substrate (KPL; purchased from VWR, catalog no. 95059-282) was added to each well and allowed to incubate at room temperature in the dark. To stop the reaction, 1N sulfuric acid was added to each well and absorbance at 450 nm was read immediately on a BioTek plate reader. Samples were run at a minimum in triplicate and at multiple dilutions.

[3] = biological target: T2, recombinant human CD40, histidine-tagged (human, UniProt P25942 21-193); assay: SPR (ProteOn XPR36); His-tagged CD40 immobilized, binder as analyte
T2 construct: Immobilized ligand in SPR and coating reagent in the single-sided ELISA; also called CD40 (AcroBiosystems); hCD40-His; not shown: histidine tag
T2 sequence (P25942 21-193 limits assumed): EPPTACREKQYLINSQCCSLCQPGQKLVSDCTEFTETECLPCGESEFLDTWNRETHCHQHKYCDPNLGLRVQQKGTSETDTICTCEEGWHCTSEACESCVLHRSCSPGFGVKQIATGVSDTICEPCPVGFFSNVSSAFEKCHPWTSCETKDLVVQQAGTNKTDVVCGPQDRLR

Sequence of recombinant human FcγR1A, histidine-tagged (human) (P12314 16-288): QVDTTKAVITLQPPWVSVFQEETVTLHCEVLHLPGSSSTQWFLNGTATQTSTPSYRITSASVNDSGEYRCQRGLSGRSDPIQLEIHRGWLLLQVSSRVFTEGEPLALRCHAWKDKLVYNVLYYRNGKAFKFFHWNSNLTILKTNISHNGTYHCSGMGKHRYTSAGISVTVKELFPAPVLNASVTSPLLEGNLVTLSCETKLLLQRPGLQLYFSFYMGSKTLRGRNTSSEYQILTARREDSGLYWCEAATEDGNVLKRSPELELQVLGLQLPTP
Sequence of recombinant hCD47-Fc (human) (Q08722 19-139 limits assumed): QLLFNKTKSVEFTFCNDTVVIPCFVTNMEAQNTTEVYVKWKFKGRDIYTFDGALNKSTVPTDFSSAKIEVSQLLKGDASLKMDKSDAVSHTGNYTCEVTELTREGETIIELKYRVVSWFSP

“anti-human CD47 blocking antibody, clone CC2C6 (BioLegend)” showed an IC50 (read off the curve) [1] of 10 nM.

Work on “human IgG1 (positive control for Fcγ receptors and FcRn) (antibody)” yielded a Kd [2] of 8.42 nM, a koff [2] of 0.000156 s⁻¹ and a kon [2] of 18400 M⁻¹ s⁻¹.

B1: murine SIRPα-Fc-CD40L chimeric protein surrogate (Fc fusion)
chain: KELKVTQPEKSVSVAAGDSTVLNCTLTSLLPVGPIRWYRGVGPSRLLIYSFAGEYVPRIRNVSDTTKRNNMDFSIRISNVTPADAGIYYCVKFQKGSSEPDTEIQSGGGTEVYVLAKPSPPEVSGPADRGIPDQKVNFTCKSHGFSPRNITLKWFKDGQELHPLETTVNPSGKNVSYNISSTVRVVLNSMDVNSKVICEVAHITLDRSPLRGIANLSNFIRVSPTVKVTQQSPTSMNQVNLTCRAERFYPEDLQLIWLENGNVSRNDTPKNLTKNTDGTYNYTSLFLVNSSAHREDVVFTCQVKHDQQPAITRNHTVLGFAHSSDQGSMQTFPDNNATHNWNVPRDCGCKPCICTVPEVSSVFIFPPKPKDVLTITLTPKVTCVVVDISKDDPEVQFSWFVDDVEVHTAQTQPREEQFNSTFRSVSELPIMHQDWLNGKEFKCRVNSAAFPAPIEKTISKTKGRPKAPQVYTIPPPKEQMAKDKVSLTCMITDFFPEDITVEWQWNGQPAENYKNTQPIMNTNGSYFVYSKLNVQKSNWEAGNTFTCSVLHEGLHNHHTEKSLSHSPGKHRRLDKVEEEVNLHEDFVFIKKLKRCNKGEGSLSLLNCEEMRRQFEDLVKDITLNKEEKKENSFEMQRGDEDPQIAAHVVSEANSNAASVLQWAKKGYYTMKSNLVMLENGKQLTVKREGLYYVYTQVTFCSNREPSSQRPFIVGLWLKPSSGSERILLKAANTHSSSQLCEQQSVHLGGVFELQAGASVFVNVTEASQVIHRVGFSSFGLLKL
notes: also called mSIRPα-Fc-CD40L; mouse SIRPα-Fc-CD40L
B1 was tested, and the EC50 (recombinant mouse CD47) was 7.37 nM and 8.73 nM.

B2: recombinant hCD40L-Fc (positive control analyte) (Fc fusion, human, UniProt P29965 116-261, looked up)
chain: GDQNPQIAAHVISEASSKTTSVLQWAEKGYYTMSNNLVTLENGKQLTVKRQGLYYIYAQVTFCSNREASSQAPFIASLCLKSPGRFERILLRAANTHSSAKPCGQQSIHLGGVFELQPGASVFVNVTDPSQVSHGTGFTSFGLLKL
notes: also called hCD40L-Fc (AcroBiosystems); not shown: Fc part of a bought fusion
B2 showed a Kd [3] of 1.15 nM, a koff [3] of 0.000351 s⁻¹ and a kon [3] of 304000 M⁻¹ s⁻¹.
